Consider one substance from PMC8009439.

A word on the stoichiometry N: it is the number of molecules, sites or subunits per partner or assembly.

Assay [1] deals with pyruvate kinase isoform M2 (PKM2), endogenous in immortalized hepatocytes (human (endogenous in NeHepLxHT)) (UniProt P14618). Nature of the assay: glycerol density gradient centrifugation.
The target is the same in assay [2]. Nature of the assay: cross-linking; cell lysate treated with 0.1% glutaraldehyde for 20 minutes at 25°C, stopped with 50 mM Tris pH 8.0, SDS-PAGE and western blot for PKM2; control and LHBS-expressing immortalized hepatocytes, HuH-7 and HepG2 cells infected with Ad-HBV-KO or Ad-HBV-WT.

Sequence of pyruvate kinase isoform M2 (PKM2), endogenous in immortalized hepatocytes, P14618 1-531 (enzyme; other documents disagree on this pair) (P14618 whole entry, canonical isoform): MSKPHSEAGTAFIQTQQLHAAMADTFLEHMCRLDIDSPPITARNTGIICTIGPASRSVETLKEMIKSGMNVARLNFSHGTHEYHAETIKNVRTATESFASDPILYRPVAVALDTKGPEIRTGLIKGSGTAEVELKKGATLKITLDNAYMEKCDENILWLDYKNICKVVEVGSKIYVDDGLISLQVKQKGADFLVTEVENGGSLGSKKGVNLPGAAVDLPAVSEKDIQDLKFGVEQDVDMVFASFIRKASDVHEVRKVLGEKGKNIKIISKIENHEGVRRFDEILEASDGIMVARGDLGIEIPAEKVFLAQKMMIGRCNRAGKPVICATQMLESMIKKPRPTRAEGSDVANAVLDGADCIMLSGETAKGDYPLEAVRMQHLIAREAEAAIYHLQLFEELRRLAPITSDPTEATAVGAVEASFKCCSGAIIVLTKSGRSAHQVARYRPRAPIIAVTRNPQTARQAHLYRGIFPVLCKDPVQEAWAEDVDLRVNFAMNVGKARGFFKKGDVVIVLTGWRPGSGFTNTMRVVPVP

Regarding “pyruvate kinase isoform M2 (PKM2), endogenous in immortalized hepatocytes, P14618 1-531 (enzyme; other documents disagree on this pair)”, the stoichiometry N in assay [1] and in assay [2] was 2 throughout.
